According to the supplement of paper PMC9170038:

How the values were obtained:
MS2 coat protein [1] = test: apparent KD of MS2 coat protein, switch OFF state (with FMN for OFF switches, without FMN for ON switches); designed switch direction (-1 OFF switch, 1 ON switch): -1; higher = weaker reporter binding; conditions: FMN input: 0 or 200 uM; Eterna round: R93 (includes R88 designs)
How it was run: (§1)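 Titration buffer: 100 mM Tris-HCl pH 7.5, 80 mM KCl, 4 mM MgCl2, without or with constant ligand. Designed RNA switches transcribed on-chip from Illumina sequencing clusters received SNAP-549-labelled MS2 coat protein in twofold steps from 0.7 or 1.5 nM to 3 µM. Apparent KD is the median per design of fits to normalised cluster binding curves.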

MS2 coat protein [2] = test: apparent KD of MS2 coat protein, switch ON state; designed switch direction (-1 OFF switch, 1 ON switch): -1; higher = weaker reporter binding; conditions: FMN input: 0 or 200 uM; Eterna round: R93 (includes R88 designs)
How it was run: as §1

Sequence | apparent KD of MS2 coat protein (MS2 coat protein [1]) | apparent KD of MS2 coat protein (MS2 coat protein [2])
ACAUCUAGAGGAUAUACAUGGAAAAAAAAAAAAAAAAAACUACAUGAGGAUCACCCAUGUAGAAGGCUAGAUGA [Ex2 Design 192: Random 12] | 35.7 nM | 40.4 nM
AACUAGUCAGGAUAUACGAACAUGUCAAAAAACAUAAAGGGACAUGAGGAUCACCCAUGUAGAAGGGACUAGCA [74%, Web mod - With 4 less G's] | 262 nM | 161 nM
AAAAAGGCAGGAUAUGCAUACACACAAAAAAAAAAACUGGGACAUGAGGAUCACCCAUGUAGAAGGGCCAAAAA [Dora Explored 8 - Jieux - Exclusion 2] | 54 nM | 151 nM
AAAAAGUCAGGAUAUACAAAAGUGCGAAAGCACAAAAAGGGACAUGAGGAUCACCCAUGUAGAAGGGACAAGAA [Married to this design, 61% 4] | 124 nM | 73.3 nM
AGCUAGUCAGGAUAUACGAAAAUGUCAGAAGCUGUGAAGGGACAUGAGGAUCACCCAUGUAGAAGGGACUAGCA [Diamond 38] | 218 nM | 69.1 nM
UAAAGACAUGAGGAUCACCCAUGUGAGGAUAUCGGUGACUAUAAAAAAAAAUAGUCACCGAGAAGGCACAGAAA [JR_Exc001_Sub301] | 117 nM | 43.2 nM
AGGAAACAUGAGGAUCACCCAUGUAAGGAUAUCAGAAAGAAAAGAAAAGAAAGAAGAAUGAGAAGGUACAAGAA [Horus Bird] | 34 nM | 29.1 nM
AAUAAGUGAGGAUAUGUGAAUAGAAGAUAAGAUACCCAAAAACAGAAGGCACAUGAGGAUCACCCAUGUAAAUA [JR_Exc004_Sub009] | 24.3 nM | 33.7 nM
GCUUGGCAAGGAUAUACAUGAGGAUCACCCAUGUGAGAGAAAAAAGUGAGAAAGAAAAGUAGAAGGUGCUGAGG [salish99-ex3-109] | 82.2 nM | 42.6 nM
GAAGAACAUGAGGAUCACCCAUGUCAGGAUAUGCGCAAGGGAAUAAUAACUUGCGGAAGCAGAAGGGACAAGAA [Ex 1 May 50] | 35.9 nM | 18.9 nM
AAAAAGGGAGGAUAUACAUGAGGAUCACCCAUGUAACAGACGAAAAAGAGUCUGAAAAGUAGAAGGCCCAAAAA [65%, Moding Exclusion3-cac2, 7] | 19.2 nM | 24.7 nM
AAAGAGCAAGGAUAUACAUGAGGAUCACCCAUGUAUGGAGAUACAAAACAAAAGAUCAGUAGAAGGUGCGGAUG [Rageleor] | 26.3 nM | 20.3 nM
GCUGGCGAAGGAUAUACAUGAGGAUCACCCAUGUGAGAGAAAAAAGUGAGAAAGAAAAGUAGAAGGUCGUUAGG [salish99-ex3-96] | 70.4 nM | 31.7 nM
AAAAAGUCAGGAUAUGCGAAGGCGUCUGAUAGACGAGGCUAGCAGAAGGGACAUGAGGAUCACCCAUGUAAAAA [Mat - Mod of Nando] | 45 nM | 50.5 nM
AAGAAGGUAGGAUAUACAUGAGGAUCACCCAUGUAAAAGAAAGAGGGAAAAGAGAAAAGUAGAAGGACCAAGAA [Ankhmakis] | 50.1 nM | 34.3 nM
AAGAACUCAGGAUAUACAUGAGGAUCACCCAUGUAAAAGAAAGAAAGGGAAAAGAAAAGUAGAAGGGAGAAGAA [Hedjkheperre-setpenre Nesbanebdjed] | 34.3 nM | 28.7 nM
AAGAAGUGAGGAUAUCGAAGACAGACGAAAAGUCUGUCAAACGAGAAGGCACAUGAGGAUCACCCAUGUGGAAA [What have we learned so far? 64% 4] | 34.6 nM | 30.5 nM
CUUAUGUGAGGAUAUCAGUAGUAAAAAAAAAAAAUUACUACUGAGAAGGCACAUGAGGAUCACCCAUGUGCAUU [EX4 322: Super Stable 22] | 38.8 nM | 30.3 nM
AAAAAGUCAGGAUAUGCGAAGGCGUCUGAUAGACGAGGCUAGCAGAAGGGACAUGAGGAUCACCCAUGUAAAAA [Mat - Exclusion 4 - Rerun - D81] | 45 nM | 50.5 nM
CUCAAGUGAGGAUAUAAAAGAAAAGAAGAGAAAGAAAAGAAUUAGAAGGCACAUGAGGAUCACCCAUGUAAGAA [EteRNA is fun!] | 25.5 nM | 39.4 nM
AGCUAGUCAGGAUAUACGAGAAUGAAAGAAGACGUGAAGGGACAUGAGGAUCACCCAUGUAGAAGGGACUAGCA [Diamond 25] | 80.3 nM | 36.1 nM
AAUAAGUGAGGAUAUCGAAGACUGUCGAAAAGACAGUCGAACGAGAAGGCACAUGAGGAUCACCCAUGUGAGGG [Mat - Exaclusion 4 - Eli mod - D69] | 107 nM | 130 nM
